From patent US8461305B2, “L-fucose α1→6 specific lectin” (J-Oil Mills, Inc., priority 2008, dated 2013)

Tests used:
[1] = frontal affinity chromatography (FAC), association constant to PA sugar chains having other L-fucose; format: binding; settings: 25 degrees C.
Procedure, shortened: (§1)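 Lectin coupled via primary amines to NHS-activated sepharose in a miniature column, run in TBS (pH 7.4) at 0.125 ml/min and 25 degrees C. PA sugar chains (3.75 nM or 7.5 nM) applied in excess, with elution monitored by fluorescence (ex 310/em 380 nm). Ka calculated from front-end delay (V−Vo) versus PA rhamnose and effective ligand amount (Bt).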

[2] = frontal affinity chromatography (FAC), association constant to PA sugar chains without L-fucose; format: binding; settings: 25 degrees C.
Procedure, shortened: as §1

B1: Lens culinaris agglutinin (protein)
chain 1: TETTSFSITKFSPDQKNLIFQGDGYTTKGKLTLTKAVKSTVGRALYSTPIHIWDRDTGNVANFVTSFTFVIDAPSSYNVADEFTFFIAPVDTKPQTGGGYLGVFNSKEYDKTSQTVAVEFDTFYNAAWDPSNKERHIGIDVNSIKSVNTKSWNLQNGERANVVIAFNAATNVLTVTLTYP
chain 2: VTSYTLNEVVPLKDVVPEWVRIGFSATTGAEFAAHEVHSWSFHSELGGTSSS
For B1, which “association constant Ka” value ([1]; Sugar chain No. 419) is on record?
The value was <1000 M⁻¹.

And the “association constant Ka” value ([1]; Sugar chain No. 420)?
The value was <1000 M⁻¹.

And the “association constant Ka” value ([1]; Sugar chain No. 718)?
The value was <1000 M⁻¹.

What about the “association constant Ka” value ([1]; Sugar chain No. 719) of the same molecule?
The value was <1000 M⁻¹.

What about the “association constant Ka” value ([1]; Sugar chain No. 720) of the same molecule?
Its value is <1000 M⁻¹.

What about the “association constant Ka” value ([1]; Sugar chain No. 721) of the same molecule?
The value was <1000 M⁻¹.

What about the “association constant Ka” value ([1]; Sugar chain No. 722) of the same molecule?
Its value is <1000 M⁻¹.

What about the “association constant Ka” value ([1]; Sugar chain No. 723) of the same molecule?
The value was <1000 M⁻¹.

What about the “association constant Ka” value ([1]; Sugar chain No. 726) of the same molecule?
The value was <1000 M⁻¹.

And the “association constant Ka” value ([1]; Sugar chain No. 727)?
The value was <1000 M⁻¹.

What about the “association constant Ka” value ([1]; Sugar chain No. 728 (as listed in Table 5/12)) of the same molecule?
Its value is <1000 M⁻¹.

What about the “association constant Ka” value ([1]; Sugar chain No. 729) of the same molecule?
Its value is <1000 M⁻¹.

And the “association constant Ka” value ([1]; Sugar chain No. 730)?
The value was <1000 M⁻¹.

And the “association constant Ka” value ([1]; Sugar chain No. 731)?
The value was <1000 M⁻¹.

What about the “association constant Ka” value ([1]; Sugar chain No. 739) of the same molecule?
The value was <1000 M⁻¹.

And the “association constant Ka” value ([1]; Sugar chain No. 909)?
Its value is <1000 M⁻¹.

And the “association constant Ka” value ([1]; Sugar chain No. 910)?
Its value is <1000 M⁻¹.

What about the “association constant Ka” value ([1]; Sugar chain No. 931) of the same molecule?
Its value is <1000 M⁻¹.

What about the “association constant Ka” value ([1]; Sugar chain No. 932) of the same molecule?
Its value is <1000 M⁻¹.

What about the “association constant Ka” value ([1]; Sugar chain No. 933) of the same molecule?
The value was <1000 M⁻¹.

And the “association constant Ka” value ([2]; Sugar chain No. 001)?
The value was <1000 M⁻¹.

What about the “association constant Ka” value ([2]; Sugar chain No. 002) of the same molecule?
The value was <1000 M⁻¹.

What about the “association constant Ka” value ([2]; Sugar chain No. 003) of the same molecule?
Its value is 7200 M⁻¹.

What about the “association constant Ka” value ([2]; Sugar chain No. 004) of the same molecule?
Its value is <1000 M⁻¹.

What about the “association constant Ka” value ([2]; Sugar chain No. 005) of the same molecule?
The value was <1000 M⁻¹.

And the “association constant Ka” value ([2]; Sugar chain No. 006)?
The value was 14000 M⁻¹.

And the “association constant Ka” value ([2]; Sugar chain No. 007)?
The value was <1000 M⁻¹.

What about the “association constant Ka” value ([2]; Sugar chain No. 008) of the same molecule?
Its value is 18000 M⁻¹.

And the “association constant Ka” value ([2]; Sugar chain No. 009)?
Its value is 18000 M⁻¹.

What about the “association constant Ka” value ([2]; Sugar chain No. 010) of the same molecule?
The value was 13000 M⁻¹.

And the “association constant Ka” value ([2]; Sugar chain No. 011)?
The value was 14000 M⁻¹.

And the “association constant Ka” value ([2]; Sugar chain No. 012)?
The value was 25000 M⁻¹.

And the “association constant Ka” value ([2]; Sugar chain No. 013)?
Its value is 17000 M⁻¹.

And the “association constant Ka” value ([2]; Sugar chain No. 014)?
Its value is 17000 M⁻¹.

And the “association constant Ka” value ([2]; Sugar chain No. 101)?
The value was <1000 M⁻¹.

And the “association constant Ka” value ([2]; Sugar chain No. 103)?
Its value is <1000 M⁻¹.

And the “association constant Ka” value ([2]; Sugar chain No. 104)?
The value was <1000 M⁻¹.

What about the “association constant Ka” value ([2]; Sugar chain No. 105) of the same molecule?
The value was <1000 M⁻¹.

And the “association constant Ka” value ([2]; Sugar chain No. 107)?
Its value is <1000 M⁻¹.

And the “association constant Ka” value ([2]; Sugar chain No. 108)?
The value was <1000 M⁻¹.

And the “association constant Ka” value ([2]; Sugar chain No. 301)?
The value was <1000 M⁻¹.

What about the “association constant Ka” value ([2]; Sugar chain No. 304) of the same molecule?
Its value is <1000 M⁻¹.

And the “association constant Ka” value ([2]; Sugar chain No. 305)?
Its value is <1000 M⁻¹.

And the “association constant Ka” value ([2]; Sugar chain No. 307)?
The value was <1000 M⁻¹.

And the “association constant Ka” value ([2]; Sugar chain No. 308)?
The value was <1000 M⁻¹.

What about the “association constant Ka” value ([2]; Sugar chain No. 313) of the same molecule?
Its value is <1000 M⁻¹.

What about the “association constant Ka” value ([2]; Sugar chain No. 314) of the same molecule?
The value was <1000 M⁻¹.

And the “association constant Ka” value ([2]; Sugar chain No. 323)?
The value was <1000 M⁻¹.

What about the “association constant Ka” value ([2]; Sugar chain No. 501) of the same molecule?
The value was <1000 M⁻¹.

What about the “association constant Ka” value ([2]; Sugar chain No. 502) of the same molecule?
The value was <1000 M⁻¹.

What about the “association constant Ka” value ([2]; Sugar chain No. 503) of the same molecule?
The value was <1000 M⁻¹.

What about the “association constant Ka” value ([2]; Sugar chain No. 504) of the same molecule?
The value was <1000 M⁻¹.

And the “association constant Ka” value ([2]; Sugar chain No. 701)?
The value was <1000 M⁻¹.

What about the “association constant Ka” value ([2]; Sugar chain No. 702) of the same molecule?
The value was <1000 M⁻¹.

And the “association constant Ka” value ([2]; Sugar chain No. 703)?
The value was <1000 M⁻¹.

And the “association constant Ka” value ([2]; Sugar chain No. 704)?
The value was <1000 M⁻¹.

What about the “association constant Ka” value ([2]; Sugar chain No. 705) of the same molecule?
Its value is <1000 M⁻¹.

And the “association constant Ka” value ([2]; Sugar chain No. 706)?
Its value is <1000 M⁻¹.

What about the “association constant Ka” value ([2]; Sugar chain No. 707) of the same molecule?
The value was <1000 M⁻¹.

And the “association constant Ka” value ([2]; Sugar chain No. 708)?
The value was <1000 M⁻¹.

What about the “association constant Ka” value ([2]; Sugar chain No. 709) of the same molecule?
The value was <1000 M⁻¹.

And the “association constant Ka” value ([2]; Sugar chain No. 710)?
The value was <1000 M⁻¹.

What about the “association constant Ka” value ([2]; Sugar chain No. 711) of the same molecule?
The value was <1000 M⁻¹.

What about the “association constant Ka” value ([2]; Sugar chain No. 712) of the same molecule?
Its value is <1000 M⁻¹.

And the “association constant Ka” value ([2]; Sugar chain No. 713)?
Its value is <1000 M⁻¹.

And the “association constant Ka” value ([2]; Sugar chain No. 715)?
The value was <1000 M⁻¹.

What about the “association constant Ka” value ([2]; Sugar chain No. 716) of the same molecule?
The value was <1000 M⁻¹.

And the “association constant Ka” value ([2]; Sugar chain No. 717)?
Its value is <1000 M⁻¹.

And the “association constant Ka” value ([2]; Sugar chain No. 724)?
Its value is <1000 M⁻¹.

What about the “association constant Ka” value ([2]; Sugar chain No. 725) of the same molecule?
The value was <1000 M⁻¹.

And the “association constant Ka” value ([2]; Sugar chain No. 728 (as listed in Table 7))?
Its value is <1000 M⁻¹.

What about the “association constant Ka” value ([2]; Sugar chain No. 732) of the same molecule?
Its value is <1000 M⁻¹.

What about the “association constant Ka” value ([2]; Sugar chain No. 733) of the same molecule?
The value was <1000 M⁻¹.

And the “association constant Ka” value ([2]; Sugar chain No. 734)?
Its value is <1000 M⁻¹.

And the “association constant Ka” value ([2]; Sugar chain No. 735)?
Its value is <1000 M⁻¹.

And the “association constant Ka” value ([2]; Sugar chain No. 736)?
Its value is <1000 M⁻¹.

What about the “association constant Ka” value ([2]; Sugar chain No. 737) of the same molecule?
The value was <1000 M⁻¹.

And the “association constant Ka” value ([2]; Sugar chain No. 738)?
The value was <1000 M⁻¹.

And the “association constant Ka” value ([2]; Sugar chain No. 901)?
Its value is <1000 M⁻¹.

What about the “association constant Ka” value ([2]; Sugar chain No. 902) of the same molecule?
Its value is <1000 M⁻¹.

And the “association constant Ka” value ([2]; Sugar chain No. 903)?
Its value is <1000 M⁻¹.

And the “association constant Ka” value ([2]; Sugar chain No. 905)?
The value was <1000 M⁻¹.

What about the “association constant Ka” value ([2]; Sugar chain No. 906) of the same molecule?
Its value is <1000 M⁻¹.

What about the “association constant Ka” value ([2]; Sugar chain No. 907) of the same molecule?
Its value is <1000 M⁻¹.
